For assay [1], the target named is T1, human CCR8 (human, UniProt P51685 1-355). The experiment in a line: cell-based or functional assay.
Assay [2] has as its target T1, human CCR8. The assay can be described thus: cell-based or functional assay. This is another data set of the same source.
Assay [3] addresses T1, human CCR8. The assay can be described thus: cell-based or functional assay. This is another data set of the same source.
The target in the next assay is T2, pm3 (Y17 sulfated; Y15 and Y16 not sulfated).
T2 construct: also called sulfated CCR8 N-terminal peptide pm3
T2 sequence (peptide, as listed by the source): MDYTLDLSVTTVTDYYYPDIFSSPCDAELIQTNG
The experiment in a line: ELISA on coated peptide [cont.]. Put shortly:
(§1)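 CCR8-related peptides were coated at 500 ng/ml in carbonate/bicarbonate buffer, and each anti-CCR8 mAb was applied at 1 μg/mL and then at a 1/10 dilution. After 90 min at room temperature and washing, TMB was developed for 15 min and optical density was taken as mAb reactivity.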
In general terms: An ELISA detects its analyte on a solid surface through an enzyme-linked reagent.

A further assay deals with T3, pm5 (Y15 and Y17 sulfated; Y16 not sulfated).
T3 construct: also called sulfated CCR8 N-terminal peptide pm5
T3 sequence (peptide, as listed by the source): as above
The assay can be described thus: ELISA on coated peptide [cont.]. The essentials: as §1

The target of the next assay is T4, pm6 (Y16 and Y17 sulfated; Y15 not sulfated).
T4 construct: also called sulfated CCR8 N-terminal peptide pm6
T4 sequence (peptide, as listed by the source): as above
The assay can be described thus: ELISA on coated peptide [cont.]. Put shortly:
as §1

The target of another assay is T5, pm8 (Y15, Y16 and Y17 sulfated).
T5 construct: also called sulfated CCR8 N-terminal peptide pm8
T5 sequence (peptide, as listed by the source): as above
The experiment in a line: ELISA on coated peptide [cont.]. Put shortly:
as §1

Assay [4] deals with T1, human CCR8. The assay can be described thus: flow cytometry, hCCR8-transfected CHO-K1 cells. Put shortly: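 Bound mAb was detected with Alexa Fluor 488 anti-mouse IgG or PE anti-human IgG Fc by flow cytometry, with isotype controls. EC50 came from a four-parameter fit.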
For orientation: In flow cytometry, cells or beads pass a laser one at a time.

The target in assay [5] is T1, human CCR8. The experiment in a line: flow cytometry, inhibition of hCCL1-AF647 (10 nM) binding to hCCR8-CHO cells. The essentials:
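hCCR8-transfected CHO cells preincubated 30 min at 4 °C with anti-CCR8 mAb (8 concentrations, top 10 μg/mL, 1/3 dilutions), washed, then exposed to labelled CCL1. Bound CCL1 quantified by flow cytometry; IC₅₀ of binding blockade from sigmoidal variable-slope fit.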

The target of assay [6] is T1, human CCR8. The experiment in a line: flow cytometry competition on hCCR8 transfected CHO cells; blocked ligand hCCL1-AF647 [cont.]. Here is the method: The hCCR8 transfected CHO cell line was dispatched at a density of 1.105 per well in a 96-well plate. Cells were incubated for 30 min at 4° C. with or without anti-CCR8 mAb tested at 10 μg/mL then diluted at 1/3. Unbound antibodies were washed away with PBS (Gibco, Villebon-sur-yvette, France) supplemented by 2% Fetal Bovine Serum (Invitrogen by Thermofisher Scientific, Illkirch-Graffenstaden, France) and 2 mM EDTA. […] After washing unbound ligands, CCL1 bound detection is quantified on a MacsQuant16 (Miltenyi, Gladbach, Germany) (R1 channel, 5 000 events per acquisition).
For IC₅₀ determination, a concentration response curve is performed using 8 concentrations of mAb. Curves are fitted and IC₅₀ of CCL1 binding blocking activity is calculated using the sigmoidal dose-response (variable slope) model on GraphPad Prism 9 (GraphPad Software, San Diego, CA, USA).

Where “and” joins values, the source holds several entries; their conditions need not be identical. Identical values can stand only once.

Results on 1 molecule are retold here after US20260132208A1 (DOMAIN THERAPEUTICS, published 2026).

B1: anti-CCR8 mAb 1-9 (antibody, V domains shown)
VH: EVQLVESGGGLVQPKGSLKLSCAASGFTFNAYAMNWVRQAPGKGLEWLARIRSKSNNYATYYADSVKDRFTISRDDSQSMFYLQMNNLKSEDTAMYYCVRGREAYYRYDGGYYAMDYWGQGTSVTVSS
VL: EIVMTQAALSAPVTPGESVSMSCRSSKSLLHSNGNTYLYWFLQRPGQSPQLLIYRMSNLASGVPDRFSGSGSGTAFTLRISRVEAEDVGVYYCMQHLEYPFTFGSGTKLEIK
notes: Murine hybridoma mAb
With B1, the “IC50 of CCL1-induced hCCR8 Gi2 signaling (BRET, HEK-293)” value with human CCR8 [1] is 0.015 µg/mL and 0.1 nM. Also, in the assay with human CCR8 [2], the “residual hCCL1 (100 nM) Gi2 response, protocol #2, mAb 0.08 µg/mL” value stood at 88%; the “residual hCCL1 (100 nM) Gi2 response, protocol #2, mAb 0.4 µg/mL” value was 57%; the “residual hCCL1 (100 nM) Gi2 response, protocol #2, mAb 10 µg/mL” value turned out to be 46%; the “residual hCCL1 (100 nM) Gi2 response, protocol #3, mAb 0.05 µg/mL” value stood at 73%. Besides, in the assay with human CCR8 [2], the “residual hCCL1 (100 nM) Gi2 response, protocol #3, mAb 0.5 µg/mL” value was determined as 36% and the “residual hCCL1 (100 nM) Gi2 response, protocol #3, mAb 5 µg/mL” value stood at 36%. The “extrapolated top plateau of hCCL1 curve with 5 µg/mL mAb, protocol #3” value in the assay with human CCR8 [3] was 533000 % of hCCL1 (100 nM). Further, the binding result in the assay with pm3 is listed as “binds”. Also, in the assay with pm5, the binding result is listed as “binds”. Besides, the binding result with pm6 is reported as “binds”. Also, the binding result with pm8 is on record as “binds”. Also, in the assay with human CCR8 [4], the “% positive cells” value was 81.8% and the “MFI fold change to isotype ctrl” value turned out to be 16.2 fold. The IC50 (commonly the midpoint of a concentration-inhibition curve) with human CCR8 [5] is ~0.91 µg/mL and 6.09 nM. Also, in the assay with human CCR8 [6], the “IC50 (read off the curve)” value was about 0.9 µg/mL.
